Measured values reported in patent publication US20230312723A1, “METHODS AND COMPOSITIONS FOR NON-SMALL CELL LUNG CANCER IMMUNOTHERAPY” (Genentech, Inc., priority 2020, published 2023).
Marks after values point to notes of the source that are not given here.

Tests used:
[1] = test system: patients with Stage IV NSCLC; experiment: Phase III study: safety, adverse events graded according to NCI CTCAE v4.0
[2] = test system: patients with Stage IV NSCLC; conditions: in vivo
[3] = test system: Stage IV non-squamous or squamous NSCLC; experiment: Phase III randomized open-label study of atezolizumab vs platinum-based chemotherapy: efficacy (OS, PFS, ORR, DOR per RECIST v1.1), incl. PD-L1 and bTMB subgroups; type: in vivo, human
Procedure: As described below, the primary endpoint of this study was improvement in overall survival (OS). Secondary endpoints included progression-free survival (PFS), overall response rate (ORR), and duration of response (DOR), among others.
FIG. 1 illustrates the study design.
At screening, tumor specimens from each potentially eligible patient were tested for PD-L1 expression by a central laboratory using an IHC assay. Only patients who are PD-L1 selected (TC1/2/3 or 101/2/3; corresponding to 1% PD-L1 expressing TCs and 1% of tumor area occupied by PD-L1 expressing ICs) were enrolled. […] Randomization was stratified by sex (male vs. female), ECOG Performance Status (0 vs. 1), histology (non-squamous vs. squamous), and PD-L1 tumor expression by IHC (TC1/2/3 and any IC vs. TC0 and 101/2/3).
Patients randomized to receive pemetrexed in combination with either cisplatin or carboplatin (non-squamous disease) received chemotherapy intravenously on Day 1 of each 21-day cycle for four or six cycles, followed by maintenance therapy with pemetrexed. Patients randomized to receive gemcitabine in combination with either cisplatin or carboplatin (squamous disease) received cisplatin or carboplatin intravenously on Day 1 and gemcitabine intravenously on Days 1 and 8 of each 21-day cycle for four or six cycles, followed by best supportive care. The intended number of cycles planned for the platinum-based induction chemotherapy (i.e., four or six cycles) was specified by the investigator prior to study randomization. Treatment will continue until disease progression, unacceptable toxicity, or death.
All patients underwent tumor assessment at baseline and every 6 weeks (±7 days) for 48 weeks following Cycle 1, Day 1 regardless of treatment delays. […] In the absence of radiographic disease progression per RECIST v1.1, tumor assessments continued regardless of whether patients start a new anti-cancer therapy.
The primary efficacy outcome measure for this study is OS, defined as the time from randomization to death from any cause.
The secondary efficacy outcome measures for this study are as follows: • PFS, defined as the time from randomization to the first occurrence of disease progression, as determined by the investigator with use of RECIST v1.1, or death from any cause, whichever occurs first • Objective response (PR plus CR) as determined by the investigator according to RECIST v1.1 • DOR, defined as the time from the first occurrence of a documented objective response to the time of disease progression, as determined by the investigator with use of RECIST v1.1, or death from any cause, whichever occurs first • OS at 1- and 2-year landmark timepoints • TTD and change from baseline (i.e., improvement or deterioration based on presenting symptomatology) in each of the patient-reported lung cancer symptoms (cough, dyspnea, or chest pain) with use of the SILO scale • TTD in patient-reported lung cancer symptoms, defined as time from randomization to deterioration (10-point change) in any of the following symptom subscales (cough, dyspnea [multi-item scale], and chest pain), whichever occurs first, as measured by the EORTC QLQ-LC13 • OS and investigator-assessed PFS according to RECIST v1.1 in the PD-L1 (defined with SP263 IHC assay) and bTMB subpopulations. The bTMB assay (Foundation Medicine, Cambridge, MA) identifies single nucleotide variants at ≥0.5% across 394 genes and estimates tumor fraction by maximum somatic allele frequency, filters out germline events and counts non-driver somatic mutations to generate a bTMB score. The bTMB score cutoffs evaluated were 0, 6 and […] of 16 (16 mutations/1.1 Mb) equates to approximately 14.5 mutations/Mb.

[4] = TC1/2/3 or IC1/2/3-WT population
[5] = bTMB 6 cutoff, bTMB BEP-WT population

## atezolizumab
[1]; Chemo N = 263, Atezo N = 286
  Grade 5 AE: Total, % of patients: 3.8%
[1]; safety population: 286 patients Arm A, 263 Arm B
  Safety profile compared to platinum-based chemotherapy (in words): favorable safety profile
[2]
  AESI Adrenal insufficiency Gr3-4, patients with event: 0
  AESI Adrenal insufficiency, patients with event: 2
  AESI Adrenal insufficiency, percent of patients: (0.7%)
  AESI Colitis Gr3-4, patients with event: 2
  AESI Colitis Gr3-4, percent of patients: (0.7%)
  AESI Colitis, patients with event: 3
  AESI Colitis, percent of patients: (1.0%)
  AESI Diabetes Mellitus Gr3-4, patients with event: 1
  AESI Diabetes Mellitus Gr3-4, percent of patients: (0.3%)
  AESI Diabetes Mellitus, patients with event: 2
  AESI Diabetes Mellitus, percent of patients: (0.7%)
  AESI Hepatitis Gr3-4, patients with event: 12
  AESI Hepatitis Gr3-4, percent of patients: (4.2%)*
  AESI Hepatitis, patients with event: 46
  AESI Hepatitis, percent of patients: (16.1%)
  AESI Hyperthyroidism Gr3-4, patients with event: 0
  AESI Hyperthyroidism, patients with event: 13
  AESI Hyperthyroidism, percent of patients: (4.5%)
  AESI Hypothyroidism Gr3-4, patients with event: 0
  AESI Hypothyroidism, patients with event: 27
  AESI Hypothyroidism, percent of patients: (9.4%)
  AESI Infusion-Related Reactions Gr3-4, patients with event: 0
  AESI Infusion-Related Reactions, patients with event: 4
  AESI Infusion-Related Reactions, percent of patients: (1.4%)
  AESI Myocarditis Gr3-4, patients with event: 1
  AESI Myocarditis Gr3-4, percent of patients: (0.3%)
  AESI Myocarditis, patients with event: 1
  AESI Myocarditis, percent of patients: (0.3%)
  AESI Myositis Gr3-4, patients with event: 0
  AESI Myositis, patients with event: 1
  AESI Myositis, percent of patients: (0.3%)
  AESI Nephritis Gr3-4, patients with event: 0
  AESI Nephritis, patients with event: 1
  AESI Nephritis, percent of patients: (0.3%)
  AESI Pneumonitis Gr3-4, patients with event: 2
  AESI Pneumonitis Gr3-4, percent of patients: (0.7%)
  AESI Pneumonitis, patients with event: 11
  AESI Pneumonitis, percent of patients: (3.8%)
  AESI Rash Gr3-4, patients with event: 3
  AESI Rash Gr3-4, percent of patients: (1.0%)
  AESI Rash, patients with event: 44
  AESI Rash, percent of patients: (15.4%)
  AESI Severe Cutaneous Adverse Reaction Gr3-4, patients with event: 0
  AESI Severe Cutaneous Adverse Reaction, patients with event: 2
  AESI Severe Cutaneous Adverse Reaction, percent of patients: (0.7%)
  AESI Vasculitis Gr3-4, patients with event: 1
  AESI Vasculitis Gr3-4, percent of patients: (0.3%)
  AESI Vasculitis, patients with event: 1
  AESI Vasculitis, percent of patients: (0.3%)
  Immune-mediated Adrenal insufficiency requiring systemic corticosteroids, %: (0.3) %
  Immune-mediated Diabetes mellitus requiring systemic corticosteroids, %: (0.3) %
  Immune-mediated Hypothyroidism requiring systemic corticosteroids, %: (0.3) %
  Immune-mediated Infusion-related reaction requiring systemic corticosteroids, %: (0.3) %
  Immune-mediated Nephritis requiring systemic corticosteroids, %: (0.3) %
[3]; PD-L1-positive BEP subgroups
  OS vs chemotherapy (in words): OS improvement favoring atezolizumab vs chemotherapy
[3]; [4]
  Median OS: 17.5 months
  OS HR, stratified (atezo vs chemo): 0.832
[3]; TC2/3 or IC2/3-WT population
  Median OS: 18.2 months
  OS HR, stratified (atezo vs chemo): 0.717
[3]; TC3 or IC3-WT population
  Confirmed ORR: 38.3% (29.08,
  Overall Survival, Median: 20.2 months
  Overall Survival, Stratified HR (atezo vs chemo): 0.595
  Overall Survival, improvement of median vs chemo: 7.1 months
  Progression-Free Survival, Median: 8.1 months
  Progression-Free Survival, Stratified HR (atezo vs chemo): 0.630
  Progression-Free Survival, improvement of median vs chemo: 3.1 months
[3]; across PD-L1 BEP subgroups
  PFS vs chemotherapy (in words): PFS improvement with atezolizumab was observed
[3]; [5]
  OS unstratified HR (atezolizumab vs chemotherapy): 0.75
  PFS HR (atezolizumab vs chemotherapy): 0.55
